Reference: patent publication EP4335870A1

Target: SARS-CoV-2 Spike RBD K417N/N501Y (SARS-CoV-2) (UniProt P0DTC2)

Substance | Kd [nM] | koff [s⁻¹] | kon [M⁻¹ s⁻¹]
ACE2-Fc IgG Hybrid Protein (ACE2-IgG1Fc, wildtype) (Fc fusion) | 7.6 | 0.00347 | 457000
ACE2(T27Y/H34A/H374N)-IgG1Fc (from UniProt Q9BYF1 18-615) (Fc fusion) | 0.447 | 0.000334 | 747000
